One block for each binder: values may come before it.
Columns and labels:
human FcγRI (NM_000566) = target: T1, human FcγRI (NM_000566) (human, UniProt P12314 16-374); experiment: flow cytometry on transiently transfected Expi293F cells
T1 construct: Transiently expressed on Expi293F cells
Description: (§1) Plasmids expressing cDNAs encoding human FcγRI (NM_000566) (SEQ ID NO: 59), FcγRIIA (NM_021642) (SEQ ID NO: 60), FcγRIIB (NM_004001) (SEQ ID NO: 61), and FcγRIIIA (NM_000569) (SEQ ID NO: 62) (Origene) were transiently transfected into Expi293F cells by ExpiFectamine293 transfection kit (Life Technologies). Flow cytometry assays were performed 48 h after transfection. […] Raji cells (ATCC: CCL-86) were also employed to test the binding of anti-OX40 antibody to FcγRIIB receptor.
(§2) 2×10⁵ cells per well were seeded in 96-well plate and blocked in BSA Stain Buffer (BD Biosciences, San Jose, USA) for 30 min at 4° C. Cells were incubated with test antibody on ice for 1.5 h at 4° C. After being washed twice with BSA stain buffer, the cells were incubated with R-PE labeled anti-human or anti-mouse IgG secondary antibody (Jackson Immunoresearch Laboratories) for 45 min at 4° C. The cells were washed twice in stain buffer and then resuspended in 150 μL of Stain Buffer containing 1:200 diluted DRAQ7 live/dead stain (Cell Signaling Technology, Danvers, USA). PE and DRAQ7 signals of the stained cells were detected by Miltenyi MACSQuant flow cytometer (Miltenyi Biotec, Auburn, USA) using B2 and B4 channel respectively. Live cells were gated on DRAQ7 exclusion and the geometric mean fluorescence signals were determined for at least 10,000 live events collected. FlowJo software (Tree Star) was used for analysis. Data was plotted as the logarithm of antibody concentration versus mean fluorescence signals. Nonlinear regression analysis was performed by GraphPad Prism 6 (GraphPad Software, Inc.) and EC₅₀ values were calculated.
(§3) The binding of engineered anti-OX40 SF2 antibodies to various FcγR receptors expressed on transiently-transfected Expi293F cells were assessed by flow cytometry as described in Example 3.

[1] = target: T2, human FcγRIIA (NM_021642) (human, UniProt P12318 36-317); experiment: as above
T2 construct: Transiently expressed on Expi293F cells
T2 sequence: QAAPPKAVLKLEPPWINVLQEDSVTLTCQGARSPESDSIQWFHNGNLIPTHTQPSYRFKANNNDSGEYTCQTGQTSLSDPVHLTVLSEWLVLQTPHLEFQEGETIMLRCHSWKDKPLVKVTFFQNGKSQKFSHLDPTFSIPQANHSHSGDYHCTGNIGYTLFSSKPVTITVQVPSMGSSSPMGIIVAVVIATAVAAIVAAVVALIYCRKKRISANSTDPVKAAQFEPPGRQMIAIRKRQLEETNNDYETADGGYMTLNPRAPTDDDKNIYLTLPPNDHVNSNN
Description: as §1, §2, §3

[2] = target: T3, human FcγRIIB (NM_004001) (human, UniProt P31994 43-310); experiment: as above
T3 construct: Transiently expressed on Expi293F cells
T3 sequence: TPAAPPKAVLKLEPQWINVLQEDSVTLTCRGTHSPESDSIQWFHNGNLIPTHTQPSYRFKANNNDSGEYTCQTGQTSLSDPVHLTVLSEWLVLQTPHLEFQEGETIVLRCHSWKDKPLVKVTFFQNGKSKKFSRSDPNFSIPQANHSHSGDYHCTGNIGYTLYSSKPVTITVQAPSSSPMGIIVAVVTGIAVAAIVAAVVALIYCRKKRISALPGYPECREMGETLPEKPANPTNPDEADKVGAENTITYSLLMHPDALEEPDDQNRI
Description: as §1, §2, §3

[3] = target: T4, human FcγRIIIA (NM_000569) (human, UniProt P08637 17-254); experiment: as above
T4 construct: Transiently expressed on Expi293F cells
T4 sequence (P08637 17-254 limits assumed): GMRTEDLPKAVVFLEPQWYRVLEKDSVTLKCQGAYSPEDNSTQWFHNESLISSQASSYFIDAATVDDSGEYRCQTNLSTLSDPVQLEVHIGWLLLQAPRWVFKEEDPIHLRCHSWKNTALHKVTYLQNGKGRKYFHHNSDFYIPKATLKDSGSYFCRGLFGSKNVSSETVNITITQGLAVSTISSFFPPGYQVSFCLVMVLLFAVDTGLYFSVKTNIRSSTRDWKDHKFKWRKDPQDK
Description: as §1, §2, §3

[4] = target: T5, recombinant human FcRn extracellular domain with a poly-histidine affinity tag (FcRn-His6) (human, UniProt P55899 24-297); experiment: competitive binding assay on plate-captured FcRn-His6 at pH 6.0; competitor: biotinylated human IgG1 indicator antibody at 1 µg/mL
T5 construct: extracellular domain
T5 sequence (P55899 24-297, form in doubt): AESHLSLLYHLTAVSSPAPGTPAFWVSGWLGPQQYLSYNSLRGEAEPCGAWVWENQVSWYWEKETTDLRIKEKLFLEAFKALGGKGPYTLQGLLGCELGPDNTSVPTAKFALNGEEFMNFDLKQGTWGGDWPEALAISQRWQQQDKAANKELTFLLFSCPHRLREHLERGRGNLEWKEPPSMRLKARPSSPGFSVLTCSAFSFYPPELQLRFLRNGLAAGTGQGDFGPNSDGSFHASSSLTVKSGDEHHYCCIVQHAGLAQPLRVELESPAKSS
Description: A competitive binding assay was used to assess relative affinities of different antibody samples to a recombinant human FcRn extracellular domain with a poly-histidine affinity tag (FcRn-His6). Ninety-six-well copper-coated plates (Thermo Scientific) were used to capture FcRn-His6 at 5 μg/mL in PBS, after which plates were washed with 0.15M NaCl, 0.02% Tween 20, and then incubated with blocking reagent (0.05M MES [2-(N-morpholino) ethanesulfonic acid], 0.025% bovine serum albumin (BSA), 0.001% Tween-20, pH 6.0, 10% chemiBLOCKER (Millipore)). […] Plates were incubated at room temperature for 1 hour, washed three times as above, and then incubated with a 1:10,000 dilution of streptavidin-horseradish peroxidase (HRP) (Jackson ImmunoResearch Laboratories) at room temperature for 30 minutes to bind biotinylated antibody. Plates were washed five times as above, and bound streptavidin-HRP detected by adding TMB (3,3′,5,5′-tetramethylbenzidine) peroxidase substrate with stable stop (Fitzgerald Industries International) and incubating for 4 minutes. Color development was stopped by addition of 0.5 M HCl. Optical densities were determined with a SpectraMax Plus384 plate reader (Molecular Devices) at 450 nm wavelength.

T1 sequence (P12314 16-374 limits assumed): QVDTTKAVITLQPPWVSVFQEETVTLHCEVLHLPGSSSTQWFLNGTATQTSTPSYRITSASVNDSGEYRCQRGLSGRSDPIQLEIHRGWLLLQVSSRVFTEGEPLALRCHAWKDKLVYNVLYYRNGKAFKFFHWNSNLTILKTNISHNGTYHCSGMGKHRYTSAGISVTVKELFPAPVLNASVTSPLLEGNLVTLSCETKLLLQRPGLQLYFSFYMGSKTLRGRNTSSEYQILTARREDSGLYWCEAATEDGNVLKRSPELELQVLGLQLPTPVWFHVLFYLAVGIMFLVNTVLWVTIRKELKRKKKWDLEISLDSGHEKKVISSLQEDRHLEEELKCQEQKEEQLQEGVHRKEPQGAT

EC50 (human FcγRI (NM_000566)): 0.326 µg/mL | EC50 [1]: 4.56 µg/mL | EC50 [2]: > 10 µg/mL | EC50 [3]: 0.744 µg/mL
B1: OX40SF2IgG1 (antibody)
chain 1: not shown
chain 2: DIQMTQSPSSLSASVGDRVTITCKASQDVGAAVAWYQQKPGKAPKLLIYWASTRHTGVPSRFSGSGSGTDFTLTISSLQPEDFATYYCQQYINYPLTFGGGTKVEIKRTVAAPSVFIFPPSDEQLKSGTASVVCLLNNFYPREAKVQWKVDNALQSGNSQESVTEQDSKDSTYSLSSTLTLSKADYEKHKVYACEVTHQGLSSPVTKSFNRGEC

EC50 (human FcγRI (NM_000566)): 0.24 µg/mL | EC50 [1]: 4.13 µg/mL | EC50 [2]: > 10 µg/mL | EC50 [3]: 1.14 µg/mL | IC50 [4]: 1.1 µg/mL
B2: OX40SF2IgG1T437R (antibody)
heavy: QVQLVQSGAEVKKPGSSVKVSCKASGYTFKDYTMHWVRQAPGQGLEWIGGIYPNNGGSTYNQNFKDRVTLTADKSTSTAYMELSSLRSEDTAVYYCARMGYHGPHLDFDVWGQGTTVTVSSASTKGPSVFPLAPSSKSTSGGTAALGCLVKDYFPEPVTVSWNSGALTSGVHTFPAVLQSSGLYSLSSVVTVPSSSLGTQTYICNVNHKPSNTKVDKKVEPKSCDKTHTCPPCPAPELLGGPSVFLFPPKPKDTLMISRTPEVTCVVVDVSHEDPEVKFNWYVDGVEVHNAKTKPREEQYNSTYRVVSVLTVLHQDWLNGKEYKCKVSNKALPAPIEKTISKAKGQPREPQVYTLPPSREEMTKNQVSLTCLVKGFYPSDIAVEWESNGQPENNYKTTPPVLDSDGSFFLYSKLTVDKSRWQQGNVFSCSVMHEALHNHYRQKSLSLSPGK
VL: DIQMTQSPSSLSASVGDRVTITCKASQDVGAAVAWYQQKPGKAPKLLIYWASTRHTGVPSRFSGSGSGTDFTLTISSLQPEDFATYYCQQYINYPLTFGGGTKVEIK
notes: also called SF2 antibody with T437R

EC50 (human FcγRI (NM_000566)): 0.248 µg/mL | EC50 [1]: 3.39 µg/mL | EC50 [2]: > 10 µg/mL | EC50 [3]: 1.56 µg/mL | IC50 [4]: 1.6 µg/mL
B3: OX40SF2IgG1T437R/K248E (antibody)
heavy: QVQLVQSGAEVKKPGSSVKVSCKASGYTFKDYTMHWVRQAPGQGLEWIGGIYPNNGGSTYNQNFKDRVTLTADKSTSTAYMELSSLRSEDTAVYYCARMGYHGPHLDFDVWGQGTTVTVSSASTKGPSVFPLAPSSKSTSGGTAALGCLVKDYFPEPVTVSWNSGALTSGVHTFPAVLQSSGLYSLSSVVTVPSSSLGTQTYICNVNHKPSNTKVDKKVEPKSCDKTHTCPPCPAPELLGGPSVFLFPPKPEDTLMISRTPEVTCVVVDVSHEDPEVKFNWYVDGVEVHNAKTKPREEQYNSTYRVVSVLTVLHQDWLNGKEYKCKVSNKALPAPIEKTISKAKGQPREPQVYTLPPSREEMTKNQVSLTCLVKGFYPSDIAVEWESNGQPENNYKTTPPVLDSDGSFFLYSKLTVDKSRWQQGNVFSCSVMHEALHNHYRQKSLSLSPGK
VL: B2 VL

From patent US20180044427A1 (Janssen / Centocor, published 2018)
